Key:
Human BMP1-1 = molecular target: T1, Human BMP1-1 (human, UniProt P13497-2 121-730, limits assumed); test: cell-based or functional assay
T1 sequence (looked up): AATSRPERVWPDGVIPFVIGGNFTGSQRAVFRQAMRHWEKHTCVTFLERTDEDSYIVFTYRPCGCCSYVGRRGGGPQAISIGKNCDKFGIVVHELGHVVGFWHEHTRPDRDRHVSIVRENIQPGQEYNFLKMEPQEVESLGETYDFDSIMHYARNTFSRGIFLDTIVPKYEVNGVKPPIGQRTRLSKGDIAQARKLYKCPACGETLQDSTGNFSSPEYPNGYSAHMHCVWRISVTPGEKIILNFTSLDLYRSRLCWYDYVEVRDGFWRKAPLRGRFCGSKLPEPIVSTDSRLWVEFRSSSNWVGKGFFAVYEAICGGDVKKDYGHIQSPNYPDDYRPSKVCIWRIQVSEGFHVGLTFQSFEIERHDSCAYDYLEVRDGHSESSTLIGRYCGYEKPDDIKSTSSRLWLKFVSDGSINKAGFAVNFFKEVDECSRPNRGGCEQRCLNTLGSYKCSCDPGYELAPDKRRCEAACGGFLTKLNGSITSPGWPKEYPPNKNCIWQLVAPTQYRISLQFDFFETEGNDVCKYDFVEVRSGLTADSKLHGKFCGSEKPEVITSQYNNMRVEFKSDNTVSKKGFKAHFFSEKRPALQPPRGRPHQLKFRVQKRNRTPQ

Mouse TLL1 = molecular target: T2, Mouse TLL1 (mouse, UniProt Q62381 148-1013, limits assumed); test: cell-based or functional assay
T2 sequence (looked up): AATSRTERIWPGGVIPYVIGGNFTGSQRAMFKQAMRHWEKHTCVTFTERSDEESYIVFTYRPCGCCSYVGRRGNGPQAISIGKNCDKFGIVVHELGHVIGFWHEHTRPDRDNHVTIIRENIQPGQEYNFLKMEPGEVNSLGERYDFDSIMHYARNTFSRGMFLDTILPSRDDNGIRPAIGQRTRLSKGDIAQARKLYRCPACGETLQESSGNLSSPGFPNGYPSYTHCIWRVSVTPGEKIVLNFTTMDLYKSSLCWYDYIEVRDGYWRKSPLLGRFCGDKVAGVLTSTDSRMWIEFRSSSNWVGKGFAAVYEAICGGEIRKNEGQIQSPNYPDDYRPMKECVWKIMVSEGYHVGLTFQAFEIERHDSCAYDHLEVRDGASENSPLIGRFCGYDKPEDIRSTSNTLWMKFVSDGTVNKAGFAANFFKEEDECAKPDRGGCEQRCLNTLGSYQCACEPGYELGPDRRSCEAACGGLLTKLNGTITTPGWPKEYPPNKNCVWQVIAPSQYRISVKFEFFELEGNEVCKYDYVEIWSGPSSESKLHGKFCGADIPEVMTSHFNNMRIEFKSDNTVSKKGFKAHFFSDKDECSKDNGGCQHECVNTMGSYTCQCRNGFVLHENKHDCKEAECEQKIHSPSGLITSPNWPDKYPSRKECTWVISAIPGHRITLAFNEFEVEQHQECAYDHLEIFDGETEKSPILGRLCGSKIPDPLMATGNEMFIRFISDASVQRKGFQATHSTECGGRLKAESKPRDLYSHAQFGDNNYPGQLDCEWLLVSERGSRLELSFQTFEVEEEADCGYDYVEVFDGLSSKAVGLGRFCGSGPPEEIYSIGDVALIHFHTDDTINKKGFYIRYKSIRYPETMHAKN

[1] = molecular target: T3, Human BMP1 CD+CUB1 truncated antigen (human, UniProt P13497 121-434, limits assumed); test: SPR, mAb captured on protein A, HBS-EP
T3 construct: domain: CD+CUB1
T3 sequence (looked up): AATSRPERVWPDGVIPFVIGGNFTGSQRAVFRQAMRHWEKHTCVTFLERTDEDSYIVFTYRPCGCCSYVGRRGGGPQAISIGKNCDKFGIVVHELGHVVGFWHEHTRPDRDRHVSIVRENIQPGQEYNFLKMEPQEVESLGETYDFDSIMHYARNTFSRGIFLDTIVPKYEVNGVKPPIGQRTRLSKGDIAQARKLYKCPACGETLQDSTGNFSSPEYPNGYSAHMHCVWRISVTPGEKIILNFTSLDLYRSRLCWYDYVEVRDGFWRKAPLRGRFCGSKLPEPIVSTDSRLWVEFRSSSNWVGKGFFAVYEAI
Description: The 16 lead panel antibodies expressed in HEK cells were evaluated for binding to a truncated version of human BMP containing the catalytic domain and truncated domain (Human BMP1 CD+CUB1 truncated antigen) by SPR using BIACORE T200. HBS-EP+ buffer was used and the experiment run at 25° C. Protein A was immobilised to a CM5 sensor chip via amine coupling. The lead panel antibodies were captured onto protein A surface. Human BMP1 CD+CUB1 was then passed over the captured antibodies at various concentrations.

IC50, FRET enzyme activity, 62.5 pM huBMP1 (Human BMP1-1): 0.05 nM | IC50, FRET enzyme activity, 800 pM biotinylated mTLL-1 (Mouse TLL1): 0.16 nM | Kd [1]: 3.7 nM
B1: 13Y039-4B06-4376 (antibody, human IgG1, kappa, V domains shown)
VH: QVQLVQSGAEVKKPGASVKVSCKASGYTFMGYYMNWVRQAPGQGLEWMGWINPSSGETNYAQKFQGRVTMTRDTSISTAYMELSRLRSDDTAVYYCARDTGELDGMNWYFDLWGRGTLVTVSS
VL: EIVLTQSPATLSLSPGERATLSCRASQSVSSYLAWYQQKPGQAPRLLIYDASNRATGIPARFSGSGSGTDFTLTISSLEPEDFAVYYCQQSDSWPPTFGGGTKVEIKR
notes: Fully human IgG1 LAGA, kappa; HEK expressed
